Source: patent US12121566B2, “Methods for treating gout” (Horizon Therapeutics USA, Inc., priority 2019, dated 2024)

Legend:
[1] = KXX exposure (AUC) by patient weight and age; type: in vivo, human
Text: In some embodiments, heavier and/or younger patients may have a higher incidence of anti-KXX antibodies, or may have higher anti-KXX drug titers, than lighter and/or older patients. In other embodiments, lighter and/or older patients may have higher drug loading of KXX than heavier and/or younger patients. In some embodiments, lighter patients may have higher exposures of KXX than heavier patients. For example, in some embodiments, lighter patients may have greater than 2-fold exposure to KXX than heavier patients. In some embodiments, lower drug levels in a patient may result in anti-KXX antibodies. […] In other embodiments, older patients may have higher exposures of KXX than younger patients. For example, in some embodiments, older patients may have greater than 2-fold exposure to KXX than younger patients. […] Thus, in some embodiments, additional 8-mg doses of KXX may be beneficial for younger and/or heavier patients. In other embodiments, younger and/or heavier patients may benefit from one or more loading doses of 16 mg of KXX.

[2] = test system: patients with symptomatic gout; assay: Single-dose, dose-ranging trial: plasma uric acid and plasma uricase activity; type: in vivo, human
Text: In some embodiments, patients or subjects of the present disclosure may have blood samples taken for PK analysis during treatment with KXX, either alone, or co-administered with an immunosuppressive agent, such as AZA. Although limited PK results have been reported in subjects receiving pegloticase, and no PK studies have been performed in subjects weighing ≥120 kg, the present disclosure provides PK analysis in patients receiving KXX treatment, either alone or co-administered with an immunosuppressive agent or therapy. Sundy et al. (JAMA 306(7):711-20, 2011) reported results from 24 subjects with refractory gout who received single doses from 0.5 to 12 mg of pegloticase. PK parameters included plasma uricase activity (pUox) and the plasma urate concentration (pUAc). […] It remains uncertain whether body mass affects drug distribution. Since pegloticase is administered as a single dose regardless of body mass, this is important to assess.
The duration of suppression of plasma uric acid appeared to be positively associated with pegloticase dose.

[3] = test system: patients with chronic gout refractory to conventional therapy; assay: Adverse reactions in pre-marketing controlled clinical trials of KXX; type: in vivo, human
Protocol: During the second 3 months of treatment, a lower proportion of pegloticase-treated patients experienced flares than patients receiving placebo. The incidence of flares during this time period was lowest in the group receiving pegloticase 8 mg every 2 weeks than in the group who received pegloticase 8 mg every 4 weeks, as was the incidence of infusion-related reactions (26% with biweekly dosing vs. 40% with the every-4-week dosing regimen). Both infusion reactions (IRs) and gout flares were least common in patients with sustained urate-lowering responses to treatment and those who received bi-weekly treatment. In most pegloticase-treated patients with IRs, a loss of response to pegloticase (return to SUA>6 mg/dL) preceded the time of the first IR (20/21; 95%).
The most commonly reported serious adverse reactions from pre-marketing controlled clinical trials were anaphylaxis, which occurred at a frequency of 6.5% in patients treated with KXX 8 mg every 2 weeks, compared to none with placebo; infusion reactions, which occurred at a frequency of 26% in patients treated with KXX 8 mg every 2 weeks, compared to 5% treated with placebo; and gout flares, which were more common during the first 3 months of treatment with KXX compared with placebo. All patients in pre-marketing controlled clinical trials were pre-treated with an oral antihistamine, intravenous corticosteroid and/or acetaminophen to prevent anaphylaxis and infusion reaction.
The data described below reflect exposure to KXX in patients with chronic gout refractory to conventional therapy in two replicate randomized, placebo-controlled, double-blind 6-month clinical trials: 85 patients were treated with KXX 8 mg every 2 weeks; 84 patients were treated with KXX 8 mg every 4 weeks; and 43 patients were treated with placebo. These patients were between the ages of 23 and 89 years (average 55 years); 173 patients were male and 39 were female; and 143 patients were White/Caucasian, 27 were Black/African American, 24 were Hispanic/Latino and 18 were all other ethnicities. Common co-morbid conditions among the enrolled patients included hypertension (72%), dyslipidemia (49%), chronic kidney disease (28%), diabetes (24%), coronary artery disease (18%), arrhythmia (16%), and cardiac failure/left ventricular dysfunction (12%).
Diagnostic criteria of anaphylaxis were skin or mucosal tissue involvement, and, either airway compromise, and/or reduced blood pressure with or without associated symptoms, and a temporal relationship to KXX or placebo injection with no other identifiable cause. Using these clinical criteria, anaphylaxis was identified in 14 (5.1%) of 273 total patients studied in the clinical program of IV KXX. The frequency was 6.5% for the every 2-week dosing regimen (8 of 123 patients), and 4.8% for the 4-week dosing frequency (6 of 126) of KXX. There were no cases of anaphylaxis in patients receiving placebo.

[4] = Stability of pegloticase diluted in infusion bags; type: physicochemical; settings: at 2° C. to 8° C. and at room temperature (20° C. to 25° C.)
Protocol: Pegloticase-diluted in infusion bags is stable for 4 hours at 2° C. to 8° C. (36° F. to 46° F.) and at room temperature (20° C. to 25° C., 68° F. to 77° F.); however, it is recommended that the diluted solution be stored under refrigeration, not frozen, protected from light, and used within 4 hours of dilution. Before administration, the diluted solution of pegloticase should be allowed to reach room temperature. Pegloticase in a vial or in an IV infusion fluid should never be subjected to artificial heating.
KXX diluted in infusion bags is stable for 4 hours at 2° to 8° C. (36° to 46° F.) and at room temperature (20° to 25° C., 68° to 77° F.). However, it is recommended that diluted solutions be stored under refrigeration, not frozen, protected from light, and used within 4 hours of dilution. Before administration, allow the diluted solution of KXX to reach room temperature. KXX in a vial or in an intravenous infusion fluid should never be subjected to artificial heating (e.g., hot water, microwave).

[5] = KXX 8 mg every 2 weeks (N = 85)

With pegloticase the “mean area under the curve (AUC)” value ([1]; heavier patients) was “about 4.04 mg/L”, the “exposure to KXX, lighter versus heavier patients” value ([1]; human, in vivo) was “greater than 2 fold” and the “exposure to KXX, older versus younger patients” value ([1]; human, in vivo) was “greater than 2 fold”. The “mean area under the curve (AUC)” value ([1]; lighter patients) was “about 8.92 mg/L”, the “mean area AUC” value ([1]; older patients) was “about 8.86 mg/L” and the “mean area AUC” value ([1]; younger patients) was “about 3.93 mg/L”. The “plasma uric acid versus dose” value ([2]; 0.5, 1, 2, 4, 8 or 12 mg, 24 patients) was “decreased with increasing pegloticase dose or concentrations”, the “duration of sustained decrease in plasma uric acid below 6 mg/dL” value ([2]; single doses of 8 mg and 12 mg, 1-hour intravenous infusion) was “more than 300 hours” and the frequency of anaphylaxis ([3]; 4-week dosing frequency (6 of 126)) was 4.8%. For the same substance, the “anaphylaxis in total patients studied in the clinical program of IV KXX” value ([3]; 14 of 273 total patients) was 5.1%, the “patients with infusion reactions” value ([3]; KXX 8 mg every 2 weeks) was 26% and the “Adverse reaction: Anaphylaxis” value [3, 5] was 4 (5%) N (%). For the same substance, the “Adverse reaction: Chest Pain” value [3, 5] was 5 (6%) N (%), the “Adverse reaction: Constipation” value [3, 5] was 5 (6%) N (%) and the “Adverse reaction: Contusion or Ecchymosis” value [3, 5] was 9 (11%) N (%). The “Adverse reaction: Gout Flare” value [3, 5] was 65 (77%) N (%), the “Adverse reaction: Infusion reaction” value [3, 5] was 22 (26%) N (%) and the “Adverse reaction: Nasopharyngitis” value [3, 5] was 6 (7%) N (%). For the same substance, the “Adverse reaction: Nausea” value [3, 5] was 10 (12%) N (%), the “Adverse reaction: Vomiting” value [3, 5] was 4 (5%) N (%) and the “patients with infusion reactions” value ([3]; KXX 8 mg every 4 weeks) was 41%. For the same substance, the “cases of congestive heart failure exacerbation” value ([3]; during the trials, KXX 8 mg every 2 weeks) was “Two”, the frequency of anaphylaxis ([3]; every 2 weeks dosing regimen (8 of 123 patients)) was 6.5% and the “percentage of patients with any gout flare” value (from here on “percentage of patients”) ([3]; first 3 months, KXX 8 mg every 2 weeks) was 74%. The “percentage of patients” value ([3]; first 3 months, KXX 8 mg every 4 weeks) was 81%, the “infusion reaction manifestation: chest discomfort, frequency” value ([3]; human, in vivo) was 9.5% and the “infusion reaction manifestation: chest pain, frequency” value ([3]; human, in vivo) was 9.5%. For the same substance, the “infusion reaction manifestation: dyspnea, frequency” value ([3]; human, in vivo) was 7.1%, the “infusion reaction manifestation: erythema, frequency” value ([3]; human, in vivo) was 9.5% and the “infusion reaction manifestation: pruritus, frequency” value ([3]; human, in vivo) was 9.5%. The “infusion reaction manifestation: urticaria, frequency” value ([3]; human, in vivo) was 10.6%, the “infusion reactions occurring with the first infusion” value ([3]; human, in vivo) was “approximately 3%” and the “infusion reactions that occurred during the time of infusion” value ([3]; human, in vivo) was “approximately 91%”. The “reactions in patients with glucose-6-phosphate dehydrogenase (G6PD) deficiency” value ([3]; human, in vivo) was “Life threatening hemolytic reactions and methemoglobinemia have been reported”, the “percentage of patients” value ([3]; subsequent 3 months, KXX 8 mg every 2 weeks) was 41% and the “percentage of patients” value ([3]; subsequent 3 months, KXX 8 mg every 4 weeks) was 57%. The “stability diluted in infusion bags” value [4] was 4 h.
